# B1: 90mer oligonucleotide (ssDNA)
# DNA: AAATCAATCTAAAGTATATATGAGTAAACTTGGTCTGACAGTTACCAATGCTTAATCAGTGAGGCACCTATCTCAGCGATCTGTCTATTT
# B2: dT79 (ssDNA)
# DNA: TTTTTTTTTTTTTTTTTTTTTTTTTTTTTTTTTTTTTTTTTTTTTTTTTTTTTTTTTTTTTTTTTTTTTTTTTTTTTTT
# What was measured:
# [1] = biological target: T1, RecA (UniProt P0A7G6 2-353); experiment: EMSA (glutaraldehyde-fixed); pH 5; 1 mM ATP, 10 mM Mg2+; EMSA: 50 mM phosphate/citrate pH 5-8, 50 mM NaCl, 10 mM MgCl2, 1 mM ATP, 25 C, 5 min, then 0.125% glutaraldehyde; stopped-flow: 20 nM dT79, 1 mM ATP, 10 mM MgCl2; details: protein: commercial; label: 5'-FITC; single strand
# [2] = biological target: T1, RecA; experiment: stopped-flow fluorescence; pH 5; 1 mM ATP, 10 mM Mg2+; binds in less than 1 s; EMSA: 50 mM phosphate/citrate pH 5-8, 50 mM NaCl, 10 mM MgCl2, 1 mM ATP, 25 C, 5 min, then 0.125% glutaraldehyde; stopped-flow: 20 nM dT79, 1 mM ATP, 10 mM MgCl2; details: protein: commercial; label: 5'-Cy3; single strand
# T1 sequence (P0A7G6 2-353): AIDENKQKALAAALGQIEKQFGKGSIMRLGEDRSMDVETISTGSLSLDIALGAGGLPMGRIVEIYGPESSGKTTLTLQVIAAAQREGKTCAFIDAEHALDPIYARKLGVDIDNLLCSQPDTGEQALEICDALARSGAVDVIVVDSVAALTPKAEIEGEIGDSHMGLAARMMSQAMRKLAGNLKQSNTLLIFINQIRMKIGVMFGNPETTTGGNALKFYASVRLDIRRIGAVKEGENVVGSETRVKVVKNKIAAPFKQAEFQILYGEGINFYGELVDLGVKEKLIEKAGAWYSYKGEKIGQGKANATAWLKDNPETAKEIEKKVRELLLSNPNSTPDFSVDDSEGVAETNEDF
Binder,binding signal [1],binding result [2]
B1,~10 fold higher affinity at pH 5 than at pH 8,–
B2,–,binds

# From publication PMC7655802, “Antibiotic-induced DNA damage results in a controlled loss of pH homeostasis and genome instability”
